From paper PMC13541614 (Nature Methods, 2026)

Target: H5N1 influenza hemagglutinin (HA) of A/Vietnam/1203/2004, native (wild type) (Influenza A virus A/Vietnam/1203/2004 …, UniProt Q5EP31, strain)
Assay: BLI
Conditions: both partners purified

B1: AZD3152 (anti-SARS-CoV-2 RBD antibody), IgG (antibody, V domains shown)
VH: EVQLVESGGGLVQPGRSLRLSCAASGFPFDDYAIHWVRLAPGKGLEWVSSISWDSGSIGYADSVKGRFTISRDNAKNSLYLQMNSLRAEDTALYYCAKGAFPGYSSGWYYGLEVWGQGTTVTVSS
VL: QSVVTQPPSASGSLGQSVTISCTGTSSDVGGYNYVSWYQQHPGKAPKLMIFEVSKRPSGVPDRFSGSKSGNTASLTVSGLQAEDEADYYCSSYAGNKGVFGGGTKLTVL
notes: also called control antibody; source: Expi293F, transfected, purified (HiTrap MabSelect PrismA); copies: 2 + 2
binding result: no binding (tested: 100 nM)
